Test results reported in PMC10939073, “The major inducible small heat shock protein HSP20-3 in the tardigrade Ramazzottius varieornatus forms filament-like structures and is an active chaperone” (Cell Stress & Chaperones, 2023).

B1: Ramazzottius varieornatus small heat shock protein HSP20-3 (natural protein, UniProt A0A1D1UZ79 1-218, looked up)
chain: MSMQRYDDYNDYGNRQMRPHRGNYEMEPFFGGNLFGGIDHVMRSMTRDLARMEKHIFGSSDTPNIGSLINHNMAMVPNFIERDGQQLAQFQLDVRGFKPEDITIRTSENVMTVTARHEDKSDDHHAIREFRRMVTIPPGMQMEGMKSRLTPNGVLSIEAPFTPQANRQGDFYEIPIQHGSSSNRNSIQNSGQNSSQNTNQNTNQNTNQNTNQNTNQNK
notes: a stop codon precedes the vector's C-terminal hexa-histidine tag, so the protein is untagged; pET23b construct; also called full length HSP20–3; RvY_03967; source: E. coli BL21 (pLysS), purified (Q-Sepharose ion exchange, Superose 6 size exclusion)
B2: HSP20-3NCT, C-terminally truncated HSP20-3 (stop codon immediately after G191, repeated QNTN-motif removed) (domain or fragment, Ramazzottius varieornatus, UniProt A0A1D1UZ79 1-191, looked up)
chain: MSMQRYDDYNDYGNRQMRPHRGNYEMEPFFGGNLFGGIDHVMRSMTRDLARMEKHIFGSSDTPNIGSLINHNMAMVPNFIERDGQQLAQFQLDVRGFKPEDITIRTSENVMTVTARHEDKSDDHHAIREFRRMVTIPPGMQMEGMKSRLTPNGVLSIEAPFTPQANRQGDFYEIPIQHGSSSNRNSIQNSG
notes: untagged; same forward primer as HSP20-3; pET23b construct; also called CTD-truncated HSP20–3; source: E. coli BL21 (pLysS), purified (Q-Sepharose ion exchange, Superose 6 size exclusion)
B3: Ramazzottius varieornatus small heat shock protein HSP20-6 (natural protein, UniProt A0A1D1VFU2 1-195, looked up)
chain: MSRNLARLLPQITNMLDTPFRRAVTPFNRYRWPASSLGFFDREFERMSNMMDRMHNDLWHSSSLLENPQGSQRGKMNQDLFNIVEENGKKKMRIIFEAERCKPEDIEIKAKGNHLEIKARTEEKGEHFQSIQEYSQYLTLPEGVKAEELTCQFEGGMVTLEAPYTPPAIEAPKDIPVQKEPAEPPVKHNIPIKHE
notes: a stop codon precedes the vector's C-terminal hexa-histidine tag, so the protein is untagged; pET23b construct; also called RvY_08665; source: E. coli BL21 (pLysS), purified (Q-Sepharose ion exchange, Superose 6 size exclusion)
B4: human CRYAB (HSPB5) (natural protein, UniProt P02511 1-175, looked up)
chain: MDIAIHHPWIRRPFFPFHSPSRLFDQFFGEHLLESDLFPTSTSLSPFYLRPPSFLRAPSWFDTGLSEMRLEKDRFSVNLDVKHFSPEELKVKVLGDVIEVHGKHEERQDEHGFISREFHRKYRIPADVDPLTITSSLSSDGVLTVNGPRKQVSGPERTIPITREEKPAVTAAPKK
notes: human alpha-B crystallin CRYAB (HSPB5), recombinant; also called recombinant human CRYAB; source: E. coli, purified (ion exchange and size exclusion chromatography; as described previously)

Molecular target: the molecule itself
Assay: SEC; Superose 6 10/300 column; eluted in 0.5 M NaH2PO4, 0.5 M Na2HPO4, 150 mM NaCl, 5 mM EDTA pH 8.0; calibrated with protein standards (670 kDa to 137 Da); self-association, oligomers

Binding result, binds:
B1, B2, B3, B4
